This note sets out measurements from patent publication US20200399314A1 (MEDIKINE, published 2020).

Sequences and labels used below:
T1: human IL-2Rα subunit (human, UniProt P01589 22-213, limits assumed)
T1 construct: also called CD25
T1 sequence (looked up): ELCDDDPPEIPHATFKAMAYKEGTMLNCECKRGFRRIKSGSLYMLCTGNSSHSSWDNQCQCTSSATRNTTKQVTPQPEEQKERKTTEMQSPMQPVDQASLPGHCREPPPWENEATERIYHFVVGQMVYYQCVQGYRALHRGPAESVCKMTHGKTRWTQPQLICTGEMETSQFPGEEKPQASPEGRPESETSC

B1: SEQ ID NO 6 (peptide)
peptide: FVEWQAYFSQMM
B2: SEQ ID NO 109 (peptide)
peptide: NWECIFSPGRRGCSLT
B3: SEQ ID NO 85 (peptide)
peptide: VSCRFRPDLGFCIF
B4: SEQ ID NO 83 (peptide)
peptide: VRCLYDSITRTCTF
B5: SEQ ID NO 120 (peptide)
peptide: TWDCLFLPGRRGCTLM
B6: SEQ ID NO 126 (peptide)
peptide: AGWCKLNPGTQVCSFY
modifications: disulfide 4-13 (inferred)
B7: SEQ ID NO 80 (peptide)
peptide: SRCVMSLQLGACIF
B8: SEQ ID NO 99 (peptide)
peptide: RWECIYIPGRKGCTLQ
B9: SEQ ID NO 10 (peptide)
peptide: FVPWDVYFSQIL
B10: SEQ ID NO 8 (peptide)
peptide: FIPWDEYFAQLL
B11: SEQ ID NO 118 (peptide)
peptide: DWECLFLPGRRGCTLF
modifications: disulfide 4-13 (inferred)
B12: SEQ ID NO 110 (peptide)
peptide: DWECLFLPGRRGCLLF
B13: SEQ ID NO 114 (peptide)
peptide: DWECIFLPGRRGCTLF
modifications: disulfide 4-13 (inferred)
B14: SEQ ID NO 134 (peptide)
peptide: RLFCLMNPGPPDCWIY
B15: SEQ ID NO 129 (peptide)
peptide: GLRCYFDPGSQICTFL
B16: SEQ ID NO 115 (peptide)
peptide: VYECLFMPGRKGCFGM
B17: SEQ ID NO 133 (peptide)
peptide: KSWCFDHPGYPICQFY
B18: SEQ ID NO 92 (peptide)
peptide: EWECRFLPGRRGCSLF
B19: SEQ ID NO 79 (peptide)
peptide: SKCVYDYNFGTCIF
B20: SEQ ID NO 98 (peptide)
peptide: RFICRIQPGREGCWSL
B21: SEQ ID NO 113 (peptide)
peptide: EWECLFLPGRKGCTLF
B22: SEQ ID NO 128 (peptide)
peptide: FFLCDDFPGLPRCEWI
B23: SEQ ID NO 101 (peptide)
peptide: SWECVYMPGHQGCRLF
B24: SEQ ID NO 84 (peptide)
peptide: VSCKIDRRSGSCLF
modifications: disulfide 3-12 (inferred)
B25: SEQ ID NO 117 (peptide)
peptide: DWHCLFLPGHRGCTLF
modifications: disulfide 4-13 (inferred)
B26: SEQ ID NO 82 (peptide)
peptide: VFCIGYGAAQSCHS
B27: SEQ ID NO 93 (peptide)
peptide: FWECVYSPGSRGCRMV
modifications: disulfide 4-13 (inferred)
B28: SEQ ID NO 112 (peptide)
peptide: AWECLFLPGHRGCSLF
B29: SEQ ID NO 132 (peptide)
peptide: KLWCQNNPGNSICDMY
B30: SEQ ID NO 104 (peptide)
peptide: VRMCYVAPGYVSCPRM
B31: SEQ ID NO 9 (peptide)
peptide: FIPWDEYFKQVL
B32: SEQ ID NO 111 (peptide)
peptide: EWECLFMPGRRGCLLM
modifications: disulfide 4-13 (inferred)
B33: SEQ ID NO 81 (peptide)
peptide: TRCTVIGPPWSCRF
B34: SEQ ID NO 102 (peptide)
peptide: VRFCRSGPGWVSCGTQ
B35: SEQ ID NO 127 (peptide)
peptide: ETPCDLHPGHWSCSMV
B36: SEQ ID NO 131 (peptide)
peptide: GSRCYWDPGREVCIFK
B37: SEQ ID NO 103 (peptide)
peptide: VRLCRVGPGYESCPAN
B38: SEQ ID NO 119 (peptide)
peptide: YWECVFMPGHRGCSLI
B39: SEQ ID NO 97 (peptide)
peptide: QWSCVFSPGVRGCKLV
modifications: disulfide 4-13 (inferred)
B40: SEQ ID NO 95 (peptide)
peptide: KWICRLVPGNGACHSF
B41: SEQ ID NO 96 (peptide)
peptide: PWVCEHYPGRRGCVLM
modifications: disulfide 4-13 (inferred)
B42: SEQ ID NO 91 (peptide)
peptide: GSRCYWDPGREVCIFK
B43: SEQ ID NO 116 (peptide)
peptide: EWECWFLPGRRGCTLI
B44: SEQ ID NO 121 (peptide)
peptide: NWECIFSPGRRGCSLT
B45: SEQ ID NO 100 (peptide)
peptide: SLNCKTRPGLRWCTWT
B46: SEQ ID NO 130 (peptide)
peptide: GQRCTYDPGQDACVFS
B47: SEQ ID NO 86 (peptide)
peptide: DRCDTRTWGYYCWI
B48: SEQ ID NO 94 (peptide)
peptide: GFRCTYDPGTHSCWSI

For orientation: IC50 means the concentration needed to halve the response being measured. High values mean a need for much substance, low ones inhibition by little substance.

Bridge positions count the residues as written; N and C are the ends. Ends that are not written are not given here. Bounds are passed on as bounds.

This test has as its target T1, human IL-2Rα subunit.
In turn, B1 displayed an IC50 below 100 µM.

Consider B2, for which the IC50 was below 100 µM.

Consider B3, for which the IC50 is below 100 µM.

B4 had an IC50 below 100 µM.

For the molecule B5, the IC50 is below 100 µM.

Molecule B6 gave an IC50 below 100 µM.

On to B7, for which the IC50 was below 100 µM.

In turn, B8 showed an IC50 below 100 µM.

Turning to B9, the IC50 is below 100 µM.

In turn, B10 had an IC50 below 100 µM.

B11 yielded an IC50 below 100 µM.

Molecule B12 registered an IC50 below 100 µM.

B13: the IC50 was below 100 µM.

B14 had a half-maximal inhibitory concentration (IC50) below 100 µM.

Consider B15, for which the IC50 is below 100 µM.

Consider B16, for which the IC50 is below 100 µM.

In the case of B17, the IC50 is below 100 µM.

Take B18: the IC50 was below 100 µM.

In turn, B19 gave an IC50 below 100 µM.

Molecule B20 returned a 50% inhibitory concentration (IC50) below 100 µM.

In turn, B21 displayed an IC50 below 100 µM.

Molecule B22 displayed an IC50 below 100 µM.

Consider B23, for which the concentration for half-maximal inhibition (IC50) is below 100 µM.

B24 registered an IC50 below 100 µM.

With B25, the IC50 was below 100 µM.

On to B26, for which the IC50 was below 100 µM.

In the case of B27, the IC50 was below 100 µM.

B28 came in with an IC50 below 100 µM.

On to B29, for which the IC50 is below 100 µM.

As for B30, the 50% inhibitory concentration (IC50) is below 100 µM.

In the case of B31, the IC50 was below 100 µM.

B32: the half-maximal inhibitory concentration (IC50) was below 100 µM.

For B33, the IC50 is below 100 µM.

As to B34, the IC50 is below 100 µM.

B35 showed an IC50 below 100 µM.

Regarding B36, the IC50 was below 100 µM.

B37 came in with an IC50 below 100 µM.

For B38, the IC50 is below 100 µM.

As to B39, the 50% inhibitory concentration (IC50) is below 100 µM.

As for B40, the IC50 was below 100 µM.

With B41, the IC50 is below 100 µM.

B42 came in with an IC50 below 100 µM.

B43 showed an IC50 below 100 µM.

With B44, the IC50 was below 100 µM.

For the molecule B45, the IC50 is below 100 µM.

Consider B46, for which the IC50 is below 100 µM.

B47 showed an IC50 below 100 µM.

B48 showed an IC50 below 100 µM.
